T1: human GIP receptor (human, UniProt P48546 22-466)
T1 sequence (looked up): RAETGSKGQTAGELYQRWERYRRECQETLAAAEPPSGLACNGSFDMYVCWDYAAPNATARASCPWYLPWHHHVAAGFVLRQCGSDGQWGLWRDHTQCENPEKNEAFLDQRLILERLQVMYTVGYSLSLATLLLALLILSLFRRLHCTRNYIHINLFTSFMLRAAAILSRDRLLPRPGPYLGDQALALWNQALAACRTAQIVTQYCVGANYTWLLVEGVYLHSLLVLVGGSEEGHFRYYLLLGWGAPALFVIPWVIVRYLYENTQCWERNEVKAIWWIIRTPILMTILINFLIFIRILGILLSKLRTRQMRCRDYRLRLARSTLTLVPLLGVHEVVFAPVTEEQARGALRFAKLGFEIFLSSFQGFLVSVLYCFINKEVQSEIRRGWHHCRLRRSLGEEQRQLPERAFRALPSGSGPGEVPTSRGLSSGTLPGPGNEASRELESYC

B1: AT269 (peptide)
peptide: GGTFISDYSIAMDRIKQQDFVNWLLAQR
HELM: PEPTIDE1{G.G.T.F.I.S.D.Y.S.I.A.M.D.R.I.K.Q.Q.D.F.V.N.W.L.L.A.Q.R}|PEPTIDE2{[O=C(O)CCCCCCCCCCCCCCC(=O)[*:2]].[gGlu].[O=C(COCCOCCN[*:1])[*:2]]}$PEPTIDE1,PEPTIDE2,16:R3-3:R2$$$V2.0; N-terminus assumed
SMILES: CC[C@H](C)[C@H](NC(=O)[C@H](CO)NC(=O)[C@H](Cc1ccc(O)cc1)NC(=O)[C@H](CC(=O)O)NC(=O)[C@H](CO)NC(=O)[C@@H](NC(=O)[C@H](Cc1ccccc1)NC(=O)[C@@H](NC(=O)CNC(=O)CN)[C@@H](C)O)[C@@H](C)CC)C(=O)N[C@@H](C)C(=O)N[C@@H](CCSC)C(=O)N[C@@H](CC(=O)O)C(=O)N[C@@H](CCCNC(=N)N)C(=O)N[C@H](C(=O)N[C@@H](CCCCNC(=O)COCCOCCNC(=O)CC[C@H](NC(=O)CCCCCCCCCCCCCCC(=O)O)C(=O)O)C(=O)N[C@@H](CCC(N)=O)C(=O)N[C@@H](CCC(N)=O)C(=O)N[C@@H](CC(=O)O)C(=O)N[C@@H](Cc1ccccc1)C(=O)N[C@H](C(=O)N[C@@H](CC(N)=O)C(=O)N[C@@H](Cc1c[nH]c2ccccc12)C(=O)N[C@@H](CC(C)C)C(=O)N[C@@H](CC(C)C)C(=O)N[C@@H](C)C(=O)N[C@@H](CCC(N)=O)C(=O)N[C@@H](CCCNC(=N)N)C(=O)O)C(C)C)[C@@H](C)CC
B2: AT273 (peptide)
peptide: PGTFISDYSIAMDRIKQQDFVNWLLAQR
HELM: PEPTIDE1{P.G.T.F.I.S.D.Y.S.I.A.M.D.R.I.K.Q.Q.D.F.V.N.W.L.L.A.Q.R}|PEPTIDE2{[O=C(O)CCCCCCCCCCCCCCC(=O)[*:2]].[gGlu].[O=C(COCCOCCN[*:1])[*:2]]}$PEPTIDE1,PEPTIDE2,16:R3-3:R2$$$V2.0; N-terminus assumed
SMILES: CC[C@H](C)[C@H](NC(=O)[C@H](CO)NC(=O)[C@H](Cc1ccc(O)cc1)NC(=O)[C@H](CC(=O)O)NC(=O)[C@H](CO)NC(=O)[C@@H](NC(=O)[C@H](Cc1ccccc1)NC(=O)[C@@H](NC(=O)CNC(=O)[C@@H]1CCCN1)[C@@H](C)O)[C@@H](C)CC)C(=O)N[C@@H](C)C(=O)N[C@@H](CCSC)C(=O)N[C@@H](CC(=O)O)C(=O)N[C@@H](CCCNC(=N)N)C(=O)N[C@H](C(=O)N[C@@H](CCCCNC(=O)COCCOCCNC(=O)CC[C@H](NC(=O)CCCCCCCCCCCCCCC(=O)O)C(=O)O)C(=O)N[C@@H](CCC(N)=O)C(=O)N[C@@H](CCC(N)=O)C(=O)N[C@@H](CC(=O)O)C(=O)N[C@@H](Cc1ccccc1)C(=O)N[C@H](C(=O)N[C@@H](CC(N)=O)C(=O)N[C@@H](Cc1c[nH]c2ccccc12)C(=O)N[C@@H](CC(C)C)C(=O)N[C@@H](CC(C)C)C(=O)N[C@@H](C)C(=O)N[C@@H](CCC(N)=O)C(=O)N[C@@H](CCCNC(=N)N)C(=O)O)C(C)C)[C@@H](C)CC
B3: AT275 (peptide)
peptide: GGTFISDYSIAMDRIK([AEEA-AEEA-γGlu-C16 diacid])QQDFVNWLLAQR-OH
modifications: N-terminus assumed
SMILES: CC[C@H](C)[C@H](NC(=O)[C@H](CO)NC(=O)[C@H](Cc1ccc(O)cc1)NC(=O)[C@H](CC(=O)O)NC(=O)[C@H](CO)NC(=O)[C@@H](NC(=O)[C@H](Cc1ccccc1)NC(=O)[C@@H](NC(=O)CNC(=O)CN)[C@@H](C)O)[C@@H](C)CC)C(=O)N[C@@H](C)C(=O)N[C@@H](CCSC)C(=O)N[C@@H](CC(=O)O)C(=O)N[C@@H](CCCNC(=N)N)C(=O)N[C@H](C(=O)N[C@@H](CCCCNC(=O)COCCOCCNC(=O)COCCOCCNC(=O)CC[C@H](NC(=O)CCCCCCCCCCCCCCC(=O)O)C(=O)O)C(=O)N[C@@H](CCC(N)=O)C(=O)N[C@@H](CCC(N)=O)C(=O)N[C@@H](CC(=O)O)C(=O)N[C@@H](Cc1ccccc1)C(=O)N[C@H](C(=O)N[C@@H](CC(N)=O)C(=O)N[C@@H](Cc1c[nH]c2ccccc12)C(=O)N[C@@H](CC(C)C)C(=O)N[C@@H](CC(C)C)C(=O)N[C@@H](C)C(=O)N[C@@H](CCC(N)=O)C(=O)N[C@@H](CCCNC(=N)N)C(=O)O)C(C)C)[C@@H](C)CC
B4: AT271 (peptide)
peptide: SGTFISDYSIAMDRIKQQDFVNWLLAQR
HELM: PEPTIDE1{S.G.T.F.I.S.D.Y.S.I.A.M.D.R.I.K.Q.Q.D.F.V.N.W.L.L.A.Q.R}|PEPTIDE2{[O=C(O)CCCCCCCCCCCCCCC(=O)[*:2]].[gGlu].[O=C(COCCOCCN[*:1])[*:2]]}$PEPTIDE1,PEPTIDE2,16:R3-3:R2$$$V2.0; N-terminus assumed
SMILES: CC[C@H](C)[C@H](NC(=O)[C@H](CO)NC(=O)[C@H](Cc1ccc(O)cc1)NC(=O)[C@H](CC(=O)O)NC(=O)[C@H](CO)NC(=O)[C@@H](NC(=O)[C@H](Cc1ccccc1)NC(=O)[C@@H](NC(=O)CNC(=O)[C@@H](N)CO)[C@@H](C)O)[C@@H](C)CC)C(=O)N[C@@H](C)C(=O)N[C@@H](CCSC)C(=O)N[C@@H](CC(=O)O)C(=O)N[C@@H](CCCNC(=N)N)C(=O)N[C@H](C(=O)N[C@@H](CCCCNC(=O)COCCOCCNC(=O)CC[C@H](NC(=O)CCCCCCCCCCCCCCC(=O)O)C(=O)O)C(=O)N[C@@H](CCC(N)=O)C(=O)N[C@@H](CCC(N)=O)C(=O)N[C@@H](CC(=O)O)C(=O)N[C@@H](Cc1ccccc1)C(=O)N[C@H](C(=O)N[C@@H](CC(N)=O)C(=O)N[C@@H](Cc1c[nH]c2ccccc12)C(=O)N[C@@H](CC(C)C)C(=O)N[C@@H](CC(C)C)C(=O)N[C@@H](C)C(=O)N[C@@H](CCC(N)=O)C(=O)N[C@@H](CCCNC(=N)N)C(=O)O)C(C)C)[C@@H](C)CC
B5: AT279 (peptide)
peptide: PGTFISDYSIAMDRIK([AEEA-AEEA-γGlu-C16 diacid])QQDFVNWLLAQR-OH
modifications: N-terminus assumed
SMILES: CC[C@H](C)[C@H](NC(=O)[C@H](CO)NC(=O)[C@H](Cc1ccc(O)cc1)NC(=O)[C@H](CC(=O)O)NC(=O)[C@H](CO)NC(=O)[C@@H](NC(=O)[C@H](Cc1ccccc1)NC(=O)[C@@H](NC(=O)CNC(=O)[C@@H]1CCCN1)[C@@H](C)O)[C@@H](C)CC)C(=O)N[C@@H](C)C(=O)N[C@@H](CCSC)C(=O)N[C@@H](CC(=O)O)C(=O)N[C@@H](CCCNC(=N)N)C(=O)N[C@H](C(=O)N[C@@H](CCCCNC(=O)COCCOCCNC(=O)COCCOCCNC(=O)CC[C@H](NC(=O)CCCCCCCCCCCCCCC(=O)O)C(=O)O)C(=O)N[C@@H](CCC(N)=O)C(=O)N[C@@H](CCC(N)=O)C(=O)N[C@@H](CC(=O)O)C(=O)N[C@@H](Cc1ccccc1)C(=O)N[C@H](C(=O)N[C@@H](CC(N)=O)C(=O)N[C@@H](Cc1c[nH]c2ccccc12)C(=O)N[C@@H](CC(C)C)C(=O)N[C@@H](CC(C)C)C(=O)N[C@@H](C)C(=O)N[C@@H](CCC(N)=O)C(=O)N[C@@H](CCCNC(=N)N)C(=O)O)C(C)C)[C@@H](C)CC

*1 amine or outer side, *2 acyl side, *3 side chain or, on linkers, in order; H or OH if unused. Where no end group is shown, it is not given here. Side-chain parts run from the residue outwards. [ ]: non-standard residue; d: D form. The star is where a group is joined. C18 diacid = O=C(O)CCCCCCCCCCCCCCCCC(=O)*; C16 diacid = O=C(O)CCCCCCCCCCCCCCC(=O)*; γGlu = O=C(O)[C@H](CCC(=O)[*:2])N[*:1]; pGlu = O=C1CC[C@@H](C(=O)O)N1; AEEA = NCCOCCOCC(=O)O

The assay addresses T1, human GIP receptor. Nature of the assay: cell-based or functional assay.
Regarding B1, the “CisBio cAMP agonism % Efficacy” value is 0%, the “DiscoveRx cAMP agonism Emax” value was determined as 12, the “DiscoveRx cAMP antagonism IC50” value stood at 91 nM and the “DiscoveRx cAMP antagonism log IC50” value was -7 log M.
On to [pGlu]GTFISDYSIAMDRIK([AEEA-AEEA-γGlu-C18 diacid])QQDFVNWLLAQR-NH2 [AT381], for which the “CisBio cAMP agonism % Efficacy” value was determined as 5%, the “CisBio cAMP antagonism % inhib” value was 74%, the “CisBio cAMP antagonism IC50” value was 13.6 nM and the “CisBio cAMP antagonism pIC50” value is 7.9. Moreover, the “DiscoveRx cAMP antagonism % inhib” value was found to be 100%, the “DiscoveRx cAMP antagonism IC50” value was determined as 38 nM and the “DiscoveRx cAMP antagonism log IC50” value is -7.4 log M.
Regarding B2, the “CisBio cAMP agonism % Efficacy” value is 0%, the “DiscoveRx cAMP agonism Emax” value turned out to be 35, the “DiscoveRx cAMP antagonism IC50” value was 634 nM and the “DiscoveRx cAMP antagonism log IC50” value was -6.2 log M.
As for B3, the “CisBio cAMP agonism % Efficacy” value came to 5%, the “CisBio cAMP antagonism % inhib” value was 66%, the “CisBio cAMP antagonism IC50” value stood at 126 nM and the “CisBio cAMP antagonism pIC50” value is 6.9. The “DiscoveRx cAMP agonism Emax” value turned out to be 5, the “DiscoveRx cAMP antagonism IC50” value came out at 43 nM and the “DiscoveRx cAMP antagonism log IC50” value is -7.4 log M.
For the molecule [pGlu]GTFISDYSIAMDRIK([AEEA-AEEA-γGlu-C16 diacid])QQDFVNWLLAQR-NH2 [AT379], the “CisBio cAMP agonism % Efficacy” value came to 0%, the “CisBio cAMP antagonism % inhib” value was 95%, the “CisBio cAMP antagonism IC50” value was determined as 21.5 nM and the “CisBio cAMP antagonism pIC50” value came to 7.7. Besides, the “DiscoveRx cAMP antagonism % inhib” value came out at 96%, the “DiscoveRx cAMP antagonism IC50” value amounted to 8 nM and the “DiscoveRx cAMP antagonism log IC50” value was -8.1 log M.
On to [pGlu]GTFISDYSIAMDRIK(C18 diacid)QQDFVNWLLAQR-NH2 [AT391], for which the “CisBio cAMP agonism % Efficacy” value turned out to be 0%, the “CisBio cAMP antagonism % inhib” value worked out at 95%, the “CisBio cAMP antagonism IC50” value was 271 nM and the “CisBio cAMP antagonism pIC50” value was determined as 6.6. Further, the “DiscoveRx cAMP antagonism % inhib” value was determined as 100%, the “DiscoveRx cAMP antagonism IC50” value came out at 10 nM and the “DiscoveRx cAMP antagonism log IC50” value is -8 log M.
For the molecule B4, the “CisBio cAMP agonism % Efficacy” value is 2%, the “CisBio cAMP antagonism % inhib” value stood at 73%, the “CisBio cAMP antagonism IC50” value was 85.8 nM and the “CisBio cAMP antagonism pIC50” value was 7.1. For the same molecule, the “DiscoveRx cAMP agonism Emax” value came to 9, the “DiscoveRx cAMP antagonism IC50” value was found to be 71 nM and the “DiscoveRx cAMP antagonism log IC50” value was -7.2 log M.
With B5, the “CisBio cAMP agonism % Efficacy” value worked out at 14%, the “CisBio cAMP antagonism % inhib” value is 81%, the “CisBio cAMP antagonism IC50” value was found to be 159 nM and the “CisBio cAMP antagonism pIC50” value is 6.8. The “DiscoveRx cAMP agonism Emax” value amounted to 17, the “DiscoveRx cAMP antagonism IC50” value came to 19 nM and the “DiscoveRx cAMP antagonism log IC50” value was -7.7 log M.
